B1: Serine/threonine-protein kinase plo1 (Schizosaccharomyces pombe (strain ATCC 38366 / 972)), P50528 (parent)
chain: MASVAIKEPKTAITPKKKSKASRLCFTPPTNLHNNKKNIFYTRYDCIGEGGFARCFRVKDNYGNIYAAKVIAKRSLQNDKTKLKLFGEIKVHQSMSHPNIVGFIDCFEDSTNIYLILELCEHKSLMELLRKRKQLTEPEVRYLMMQILGALKYMHKKRVIHRDLKLGNIMLDESNNVKIGDFGLAALLMDDEERKMTICGTPNYIAPEILFNSKEGHSFEVDLWSAGVVMYALLIGKPPFQDKEVKTIYRKIKANSYSFPSNVDISAEAKDLISSLLTHDPSIRPSIDDIVDHEFFHTGYMASTLPDEILHSMPIWPSSQSKSSFQRNLDFVASASGVGFGNSAGVEKNKPYALRTDEVDNDRILPSVLSPRDRVNPVMKIGPETKPVPSKLSTALHAARKSTDGSLGSRVKVLREESQSFVPTKSAVTEQVEPIQLIRSLSANTVSRLSKVGNMKSDIWISVKKTALKIGMALEAHTHALTSEDADSEPVLFITKWVDYSNKYGLGYQLSDESVGVHFNDDTSLLFSADEEVVEYALHPKDTEIKPYIYPASKVPESIRSKLQLLKHFKSYMGQNLSKAVQDESFEKPKNSTSNTMLFMQHYLRTRQAIMFRLSNGIFQFNFLDHRKVVISSTARKIIVLDKERERVELPLQEASAFSEDLRSRLKYIRETLESWASKMEVS
partner: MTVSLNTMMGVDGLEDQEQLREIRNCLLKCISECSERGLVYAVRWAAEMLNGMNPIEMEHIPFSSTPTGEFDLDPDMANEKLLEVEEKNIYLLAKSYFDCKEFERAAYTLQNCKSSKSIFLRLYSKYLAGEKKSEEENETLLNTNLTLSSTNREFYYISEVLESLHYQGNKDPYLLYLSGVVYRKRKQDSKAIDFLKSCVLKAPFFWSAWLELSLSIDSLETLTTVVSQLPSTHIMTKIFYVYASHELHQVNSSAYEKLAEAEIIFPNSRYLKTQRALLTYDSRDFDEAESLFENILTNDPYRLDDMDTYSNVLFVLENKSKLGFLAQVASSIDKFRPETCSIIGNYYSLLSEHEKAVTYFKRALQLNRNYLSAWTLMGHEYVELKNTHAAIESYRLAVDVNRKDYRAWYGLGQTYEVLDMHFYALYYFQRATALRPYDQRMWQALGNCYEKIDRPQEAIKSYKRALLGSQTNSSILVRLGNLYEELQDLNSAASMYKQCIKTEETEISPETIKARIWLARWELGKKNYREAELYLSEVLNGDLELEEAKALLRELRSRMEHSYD
B2: Serine/threonine-protein kinase plo1 (Schizosaccharomyces pombe (strain ATCC 38366 / 972)), P50528 (parent)
chain: B1 chain
partner: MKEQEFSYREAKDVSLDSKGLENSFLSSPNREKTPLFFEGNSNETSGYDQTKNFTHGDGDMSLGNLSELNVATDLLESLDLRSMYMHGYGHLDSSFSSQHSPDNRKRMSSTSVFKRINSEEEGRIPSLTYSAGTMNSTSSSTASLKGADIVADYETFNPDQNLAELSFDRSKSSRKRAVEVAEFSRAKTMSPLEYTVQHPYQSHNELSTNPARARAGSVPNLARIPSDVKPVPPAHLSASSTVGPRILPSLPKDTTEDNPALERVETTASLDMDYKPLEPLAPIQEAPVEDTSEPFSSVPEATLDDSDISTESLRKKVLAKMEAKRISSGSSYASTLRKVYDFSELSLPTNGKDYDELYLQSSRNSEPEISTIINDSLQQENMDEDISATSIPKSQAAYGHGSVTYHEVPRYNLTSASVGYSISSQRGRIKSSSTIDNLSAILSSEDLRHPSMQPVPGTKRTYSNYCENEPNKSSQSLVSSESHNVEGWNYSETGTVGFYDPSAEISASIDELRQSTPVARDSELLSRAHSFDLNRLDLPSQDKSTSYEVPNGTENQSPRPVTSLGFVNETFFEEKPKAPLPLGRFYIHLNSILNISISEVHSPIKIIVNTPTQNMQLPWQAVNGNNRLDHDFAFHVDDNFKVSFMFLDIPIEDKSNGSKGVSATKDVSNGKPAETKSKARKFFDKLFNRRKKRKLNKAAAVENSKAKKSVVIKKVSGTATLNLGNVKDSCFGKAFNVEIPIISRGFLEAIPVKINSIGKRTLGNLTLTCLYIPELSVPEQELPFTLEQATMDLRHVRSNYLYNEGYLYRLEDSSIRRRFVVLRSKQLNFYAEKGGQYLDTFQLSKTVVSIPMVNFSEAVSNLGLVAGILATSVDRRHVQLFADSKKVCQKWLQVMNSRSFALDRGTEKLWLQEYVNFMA
B3: Serine/threonine-protein kinase plo1 (Schizosaccharomyces pombe (strain ATCC 38366 / 972)), P50528 (parent)
chain: B1 chain
partner: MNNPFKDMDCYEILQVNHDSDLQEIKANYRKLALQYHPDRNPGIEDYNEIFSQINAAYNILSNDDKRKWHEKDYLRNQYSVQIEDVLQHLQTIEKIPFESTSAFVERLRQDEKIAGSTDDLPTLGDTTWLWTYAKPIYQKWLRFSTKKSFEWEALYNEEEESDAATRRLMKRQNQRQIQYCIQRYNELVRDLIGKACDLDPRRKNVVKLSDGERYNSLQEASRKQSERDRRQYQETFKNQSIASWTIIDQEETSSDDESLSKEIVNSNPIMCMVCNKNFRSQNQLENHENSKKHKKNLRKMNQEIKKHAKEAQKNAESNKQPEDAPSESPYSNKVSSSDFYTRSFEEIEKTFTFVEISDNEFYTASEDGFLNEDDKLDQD
B4: Serine/threonine-protein kinase plo1 (Schizosaccharomyces pombe (strain ATCC 38366 / 972)), P50528 (parent)
chain: B1 chain
partner: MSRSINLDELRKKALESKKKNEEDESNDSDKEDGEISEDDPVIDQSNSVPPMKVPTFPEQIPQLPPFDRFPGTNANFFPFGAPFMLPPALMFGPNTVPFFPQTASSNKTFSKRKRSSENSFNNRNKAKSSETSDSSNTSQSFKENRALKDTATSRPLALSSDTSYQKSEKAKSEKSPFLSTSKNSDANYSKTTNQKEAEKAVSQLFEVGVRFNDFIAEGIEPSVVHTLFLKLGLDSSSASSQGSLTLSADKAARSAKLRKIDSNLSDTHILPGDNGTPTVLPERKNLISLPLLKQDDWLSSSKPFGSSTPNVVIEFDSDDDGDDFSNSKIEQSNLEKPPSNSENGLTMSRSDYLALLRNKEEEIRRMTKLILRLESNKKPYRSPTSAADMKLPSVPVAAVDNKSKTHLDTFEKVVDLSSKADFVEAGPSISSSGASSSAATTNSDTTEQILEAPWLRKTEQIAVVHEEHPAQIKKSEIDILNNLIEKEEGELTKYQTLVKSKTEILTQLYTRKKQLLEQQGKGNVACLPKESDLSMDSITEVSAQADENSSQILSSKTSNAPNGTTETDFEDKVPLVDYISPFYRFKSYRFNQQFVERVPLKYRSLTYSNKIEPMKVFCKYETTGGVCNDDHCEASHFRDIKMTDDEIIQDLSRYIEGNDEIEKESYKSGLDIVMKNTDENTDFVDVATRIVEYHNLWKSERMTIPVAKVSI

Variants of: B1
Details: with apc8_schpo cut23, O94556

Row | Variant | effect of a mutation on the interaction
1 | L565F | decreasing interaction
2 | V533A | decreasing interaction
3 | F493L | decreasing interaction
4 | R605P | decreasing interaction

Variants of: B2
Details: with bud4_schpo mid1, P78953

Row | Variant | effect of a mutation on the interaction
5 | V533A | decreasing interaction
6 | V498A | decreasing interaction

Variants of: B3
Details: with epr1_schpo epr1, O14213

Row | Variant | effect of a mutation on the interaction
7 | I252T | disrupting interaction
8 | V533A | decreasing interaction
9 | S256P | disrupting interaction
10 | F493L | disrupting interaction
11 | K251E | disrupting interaction
12 | V498A | decreasing interaction

Variants of: B4
Details: with red1_schpo red1, Q9UTR8

Row | Variant | effect of a mutation on the interaction
13 | V498A | decreasing interaction

Source: IntAct's records for PubMed 12615979
